Reference: the domain aggregation screens of Martell et al. (2025)

Experiment: soluble fraction after stress (log2 fold change); higher = more stays soluble; pooled small domains, quantitative proteomics
Settings: stress: pH 4
How it was run: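 Custom libraries of small protein domains were pooled and measured with high-throughput quantitative proteomics after pH 4 stress. The read-out is the fold change in the amount of each domain that stays soluble after the acid stress, taken as a measure of aggregation propensity. Fold changes are on a log2 scale, and higher values mean more of the domain stayed soluble.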

Sequence: HMSDQTYVKDPETGEIFRVHKRVWETGEFWRDPVWGNILGGVERGSELERLLREEGWRPLQQSLEGFPEQ
- soluble fraction (log2): -0.276

Sequence: HMNPNPFVNLSPRELEVLNLLFKGYGVLEISNELNIGQTTASTFKSRILKKTSTHSVVELIKLAEQYGFIP
- soluble fraction (log2): -0.847

Sequence: HMSETLESYTTRLKQLEEIADSFQGVDKTFAIQAGREIRVMVVPEQISDDDMILLARDISNQIEENLDY
- soluble fraction (log2): -0.912

Sequence: HMETKPTELMLEVHELRIGMFVHLDLGWMDHPFPLNRFKISTNSQIEQIKGLRLKQVKVMTALSDPTALS
- soluble fraction (log2): -1.25

Sequence: HMGALAITPDFVGQTREEAERFLRDLDLSFDIGGKGDRILRQEPVAGQRMNLDQPMKLWVGSMNA
- soluble fraction (log2): -0.313

Sequence: HMVVVPDVKGLKIEEAAEFFKNNNLHYNVIDSVFSKDVEPGAIVELSPLAGSKVKEGRIVFITVNALTS
- soluble fraction (log2): -0.681

Sequence: HMITVPKVINMSETQARQTLDALGLNVTLSATQVMNDKIPYGYVAAQSYSAGKEVPAGTTIELTMSIGL
- soluble fraction (log2): 0.0236

Sequence: HMTQNSAITNRVLYMQRTLRQYGYAVPESGNFDRTTRAHAAEFLYNATGLPVRENQSVQEFYRAFQRVQG
- soluble fraction (log2): 0.203

Sequence: HMEVMYFIYQQEEPMRIDKFLVNEMEDFSRNSIQIYIKDNHVLVNDKVVKANYILKKGDAISITIPDPI
- soluble fraction (log2): -0.768

Sequence: HMQDPVWVDWLGENDWFQKDPKRRGLANGYSEILRAEQPELVGRPFLDEVTRRVQADFPELFG
- soluble fraction (log2): -1.33

Sequence: HMSTTYLNEGDRITLTDSVNIRTSMSETADRVGLAYQGDVVTVIMSYAEGWTKVSWNGQTGYAKTEYL
- soluble fraction (log2): -0.0679

Sequence: HMIRQETYLLVRKAVGALPVQMRKIIELAMQGKKNAEIAAQLSISEGTVHTLKKTAYKKLRDRLQE
- soluble fraction (log2): -0.32

Sequence: HMVRKGEINFDQLSVRARNALRNMNILFEKEILKLTEYDLKSIPNLGVKTTNELLSYIKRLQTNQKEE
- soluble fraction (log2): -0.653

Sequence: HMSQTDTDAKDARQKILALLSDGEWHQKTELLKIDAPKEAVSNAIRYLVLEELISIDHAKVRA
- soluble fraction (log2): -0.465

Sequence: HMGAAIEYGDRGNTVLQAQRLLIARGYMAGSADGIYGRQMEQAVKRFQKEQGLPESGVVDRRTLQVLIRSR
- soluble fraction (log2): 0.04

Sequence: HMPAPAPDIPYHSRVSVRRADGFYEGTWTNTAPILDYTGRWMVNVSLGGKRVFVPVEEVVVH
- soluble fraction (log2): -0.384

Sequence: HMGSALLEAGADDAGQRLDQWLAAKLGPSISRSRVQALIKQGAVLVGGKPAGEAKRKLVAGDVVSVALPEP
- soluble fraction (log2): 0.133

Sequence: HMQTTKTGTITASSLYVRSGASTSHKVLGTVSKGKTVQIKDTQDGWHKISYNGDHGWVSGKYVSTT
- soluble fraction (log2): ≥ 0.43

Sequence: HMVEDFSEVLLQYIREQGGAIALNDKTDAGVIYDTFGVSKKTFKKAVGDLYKKRLIVLGDEGIRLA
- soluble fraction (log2): -0.939

Sequence: HMPMPQDEVSYALGLSIGQNFKASGIKAITSEDFIAGLQDALAEREPQMTTERAREVINQLFMRLQQEESE
- soluble fraction (log2): -0.784

Sequence: HMGTRHPLPYAYARANTVLLEDDGDRLVLWAPENVSLTALGEVLRRFDVDALERESSSTLANRIAVAYAG
- soluble fraction (log2): -0.896

Sequence: HMTSDYEPSEKDEKAVIGIAFLRNTDVYDVDIDKAEAIKALKANNDIYQKFVKFFPFVKLPSLYDDFQ
- soluble fraction (log2): -0.109

Sequence: HMEAVGLTPRQGDVLALLLQGKPNKLIARDLNLSVETVKDHVAAVLRALGVSTRTQAVLAVSQMQQQAAQ
- soluble fraction (log2): -0.221

Sequence: HMDGLIRLNKLLATLGVESRRHAEEMIIAGRITVDGVTATEKGQKVRRGAVIKVDGVEVGPPP
- soluble fraction (log2): 0.0501

Sequence: HMEPVIELGDRTLPIEITRHRRARRLTLRLAADGSAVRITLPHWARSAEATAFAHARRDWLAAQLAK
- soluble fraction (log2): 0.108

Sequence: HMTEELLNQRKETMLALLNDPTYVPMKLKELAMLLNLSRDQRDELREVMESLEQDGKVILTKRGKYKIP
- soluble fraction (log2): -0.255

Sequence: HMSGTFIGGELVKPGEPLTPMQRAAITMGLQMGNTYSPEIMEKYNNAGGSPSKEEFENYQKNKS
- soluble fraction (log2): 0.22

Sequence: HMDKNNLLIIYRTNSEGTPYAFSVTPSAKSLDALHKDAKEMLPFLEKSMNNFFSIQIWERAEYLKY
- soluble fraction (log2): -0.379

Sequence: HMNHLLYPNPANNFIWIKNSTSNTAVIYNLQGVMSKVEVSEEGKIDISRFSPGLYMIKQGERIYKFTIA
- soluble fraction (log2): -0.358

Sequence: HMGEILYSGVLKGGDGPEATKLALEKFLGEANTQVAGRIGVQPETQVIWLSREAVDSAASTLSQHKGNMYV
- soluble fraction (log2): -0.0574

Sequence: HMDVIGLEAAKSAAVKDAGISSPTFTKATLDRDDGRSLYEIEFISGSTKYEYDIDALTGSVLSKKTRALS
- soluble fraction (log2): ≥ 0.43

Sequence: HMPTNVYSIIGKEGIVLESIDNLNSTGKVKVNGELWSAISDSNIEKGETIKVLSVNGVKLKVEKVN
- soluble fraction (log2): -0.0569

Sequence: HMDPLPDEVQEVIDMVDGFKAMDELSEADKADVKAAYDAYNALSAEHKAMVPEHIVTFLNRAYDKLFD
- soluble fraction (log2): -1.63

Sequence: HMNTPHLTPREREVLKGIVDGLINKEIAARMGVSVATVITHRNNLTEKLGTRSVSALTIFAVMHGIVR
- soluble fraction (log2): -0.323

Sequence: HMDVAWDAIKAKLKEVVDAEDKAHPLNDDQIVKALGESGITIARRTIAKYRDLLGIPPARKRKA
- soluble fraction (log2): 0.0412

Sequence: HMSLAATLSPREIDTVRLIAVGSSNKEIARQLGIAETTVKIHVQHILRKLNLTSRVQVAVFANAEGII
- soluble fraction (log2): -0.407

Sequence: HMGEYGVLWYLLTKKEAVSAGELKEKLHVVPGRMTDILTALEKKGLIIRQKNKTDKRVVDVVLTKEGEKEA
- soluble fraction (log2): -0.511
